Test results: patent publication US20250340632A1 (OSE IMMUNOTHERAPEUTICS, published 2025)
Where two headings read alike, the source gives them in different places.

How the values were obtained:
[1] = target: human SIRPg protein at the surface of cells (human T lymphocyte Jurkat cell line; T cells in PBMC) (human) (UniProt Q9P1W8); assay: cytofluorometry on Jurkat cells, % of positive cells (not the MFI readout of Table 5)
[2] = target: human SIRPg protein at the surface of cells (human T lymphocyte Jurkat cell line; T cells in PBMC) (human) (UniProt Q9P1W8); assay: cytofluorometry (MFI) on human Jurkat cells, ED50
[3] = target: T1, recombinant human SIRPg protein with His Tag (#11828-H08H, Sino Biological) (human, UniProt Q9P1W8 29-360, biotinylated in the ELISA binding assay (sites not given)); assay: SIRPg binding ELISA, DO 450 nm (legend: immobilized SIRPg-His at 1 µg/ml; method 1.4: captured antibody, biotinylated SIRPg)
T1 construct: Bought protein; also called human SIRPg His; SIRPg-His

[4] = target: T2, human SIRPg protein at the surface of cells (human T lymphocyte Jurkat cell line; T cells in PBMC) (human, UniProt Q9P1W8 29-387); assay: cytofluorometry (MFI) on human Jurkat cells, ED50
T2 construct: whole, on cells; also called SIRPg on Jurkat cells
Procedure: To measure binding of mouse anti-hSIRPg on human cell lines, cells were first washed in cold-PSE (Phosphate Buffer Saline with 2% of heat-inactivated bovine serum, 2 mM EDTA), blocked for 30 min at room temperature with a mix of 50-fold diluted human Fc-block (#564220, BD Pharmingen) and 20-fold diluted/heat-inactivated human serum (SAB, # H4522-100, Sigma Aldrich) and then incubated for 10 min on ice to slow the cell metabolism. Antibodies in range were incubated for 30 min on ice, and cells were washed with cold-PSE before staining for 30 min on ice with an Alexa 647-labelled goat anti-mouse IgG at 5 μg/ml (#A21236; Fisher Scientific, Illkirch, France). Samples were analyzed on CytoFlex cytofluorometer (Beckman Coulter France, Villepinte).

[5] = target: T1, recombinant human SIRPg protein with …; assay: SIRPg binding ELISA, DO 450 nm (legend: immobilized SIRPg-His at 1 µg/ml; method 1.4: captured antibody, biotinylated SIRPg); remark: listed apart in the source
[6] = target: T3, recombinant human SIRPa protein with His Tag (#11612-H08H, Sino Biological) (human, UniProt P78324 31-370); assay: competition ELISA on immobilized SIRPa-His against biotinylated CD47-Fc at 3 µg/ml, streptavidin-peroxidase detection [lower graph]
T3 construct: Bought protein; also called human SIRPa His; SIRPa-His

[7] = target: T3, recombinant human SIRPa protein with …; assay: ELISA on immobilized SIRPa, ED50
[8] = target: human SIRPa on SIRPa positive U937 human monocyte cell line (human) (UniProt P78324); assay: binding to U937 cells expressing SIRPa, ED50

LSB2.20 antibody (Biolegend, reference 336602)
EC50 (read off the curve) [1]: 0.2 µg/mL
EC50 [2]: 6.97 µg/mL

OX119 antibody (SantaCruz reference sc-53114)
EC50 (read off the curve) [1]: 0.2 µg/mL
EC50 [2]: 3.88 µg/mL

B1: 11B5 recombinant chimeric anti-SIRPg antibody (antibody, human IgG4 S228P, kappa, V domains shown)
VH: EVQLVESGGDLVKPGGSLKLSCAASGFAFSDYYMYWVRQTPEKRLEWVATISDDGIYTYYPDSVKGRFTISRDNAKNNLFLQMSSLKSEDTAMYYCARGGYRDYYAMDYWGQGTSVTVSS
VL: DIQMTQSPASLSASVGETVTITCRASENIYSYLAWYQQKQGKSPQLLVYNGITLAEGVPSRFSGSGSGTQFSLKINSLQPEDFGDYYCQHHYGSPRTFGGGTTLEIKR
notes: Mouse VH/VL on human IgG4 (S228P) and human CL kappa
EC50 (read off the curve) [3]: ~0.007 µg/mL
EC50 [4]: 0.195 µg/mL
EC50 (read off the curve) [5]: ~0.006 µg/mL

B2: Kwar23 antibody (antibody, V domains shown)
VH: EVQLQQSGAELVKPGASVKLSCTASGFNIKDYYIHWVQQRTEQGLEWIGRIDPEDGETKYAPKFQDKATITADTSSNTAYLHLSSLTSEDTAVYYCARWGAYWGQGTLVTVSS
VL: QIVLTQSPAIMSASPGEKVTLTCSASSSVSSSYLYWYQQKPGSSPKLWIYSTSNLASGVPARFSGSGSGTSYSLTISSMEAEDAASYFCHQWSSYPRTFGAGTKLELK
IC50 (read off the curve) [6]: ~0.7 µg/mL
EC50 (read off the curve) [3]: ~0.01 µg/mL
EC50 [7]: 0.00469 µg/mL
EC50 [8]: 0.0719 µg/mL
EC50 (read off the curve) [5]: ~0.006 µg/mL

B3: 13F7 recombinant chimeric anti-SIRPg antibody (antibody, human IgG4 S228P, kappa, V domains shown)
VH: QVQLQQSGAELVRPGVSVKVSCKGSGYTFTDYAMHWVKQSHPKSLEWIGVIGTYYGDAYYNQNFKGKATMTVDKSSSTAYMELARLTSEDSAIYYCARRAGTSDWFAYWGQGTLVTVSA
VL: NIVLTQSPASLAVSLGQRATISCRASESVDSYGNSFMHWYQQKPGQPPKLLIYRASNLESGIPARFSGSGSRTDFTLTINPVEADDVATYYCQQSNEDPPTFGGGTKLEIKR
notes: as for B1
EC50 [4]: 0.281 µg/mL

B4: 3H8 recombinant chimeric anti-SIRPg antibody (antibody, human IgG4 S228P, kappa, V domains shown)
VH: QIQLVQSGPELKKPGETVNISCMASGYSFTNYGMNWVKQAPGKGLKWMGWINTYTGEPTYADDFKGRFAFSLETSASTAYLQINNLKNEDMATYFCARQPYDYVPSFPYWGQGTLVTVSA
VL: DIVMTQSHKFMSTSVGDRVNITCKASQDVSTAVAWYQLKPGQSPKLLIYWASIRHTGVPDRFTGSGSGTDYTLTISSVQAEHLALYYCQQHYSTPWTFGGGTKLEIKR
notes: as for B1
EC50 [4]: 0.083 µg/mL

B5: 26F10 recombinant chimeric anti-SIRPg antibody (antibody, human IgG4 S228P, kappa, V domains shown)
VH: EVQLQQSGTELVRSGASVKLSCTTSGFNIKDYYMHWVKQRPEQGLEWIGWIDPENGDTEYAPKFQGKATMTADTSSNTAYLQLSSLTSEDTAVYYCNAYDGYYGAMDYWGQGTSVTVSS
VL: DVVMPQTPLSLPVSLGDQASISCRSSQSLVHSNGNTYLHWYLQKPGQSPKLLIYKVSNRFSGVPDRFSGSGSGTDFTLKISRVEAEDLGVYFCSQNTHVPLTFGAGTKLELKR
notes: as for B1
EC50 (read off the curve) [3]: ~0.02 µg/mL
EC50 [4]: 0.156 µg/mL

B6: 2H9 recombinant chimeric anti-SIRPg antibody (antibody, human IgG4 S228P, kappa, V domains shown)
VH: DVQLVESGGGLVQPGGSRKLSCAASGFTFSSFGMHWVRQAPEKGLEWVAYISSGSTTIYYADTVKGRFTISRDNPKNTLFLQMTSLRSEDTAMYFCARWTVVTNCFDYWGQGTTLTVSS
VL: QIVLTQSPALMSASPGEKVTMTCSASSSISSMYWYQQKPRSSPKPWIYLTSNLASGVPARFSGSGSGTSYSLTISSMEAEDAATYYCQQWSSNLTFGAGTKLELKR
notes: Mouse VH/VL on human IgG4 (S228P)
EC50 [4]: 0.426 µg/mL
